The target of the assay is T1, mouse 4-1BB–Fc protein (mouse, UniProt P20334 24-187).
T1 chain: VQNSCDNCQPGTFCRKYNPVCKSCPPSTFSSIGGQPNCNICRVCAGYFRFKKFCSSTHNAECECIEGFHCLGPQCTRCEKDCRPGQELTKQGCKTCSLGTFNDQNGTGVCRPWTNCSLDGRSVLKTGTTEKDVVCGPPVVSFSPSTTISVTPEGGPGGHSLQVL
In words: SPR.

B1: mouse siglec-4–HIS protein (domain or fragment)
chain: GHWGAWMPSTISAFEGTCVSIPCRFDFPDELRPAVVHGVWYFNSPYPKNYPPVVFKSRTQVVHESFQGRSRLLGDLGLRNCTLLLSTLSPELGGKYYFRGDLGGYNQYTFSEHSVLDIVNTPNIVVPPEVVAGTEVEVSCMVPDNCPELRPELSWLGHEGLGEPTVLGRLREDEGTWVQVSLLHFVPTREANGHRLGCQAAFPNTTLQFEGYASLDVKYPPVIVEMNSSVEAIEGSHVSLLCGADSNPPPLLTWMRDGMVLREAVAKSLYLDLEEVTPGEDGVYACLAENAYGQDNRTVELSVMYAPWKPTVNGTVVAVEGETVSILCSTQSNPDPILTIFKEKQILATVIYESQLQLELPAVTPEDDGEYWCVAENQYGQRATAFNLSVEFAPIILLESHCAAARDTVQCLCVVKSNPEPSVAFELPSRNVTVNETEREFVYSERSGLLLTSILTIRGQAQAPPRVICTSRNLYGTQSLELPFQGAHRLMWAKIGP
Consider B1, for which the off-rate constant (koff) came out at 0.011 s⁻¹.

Values taken from publication PMC10866537 (2024).
